Columns and labels:
human CD138 [1] = target: T1, human CD138 (human, UniProt P18827 23-310); experiment: flow cytometry on MM cell lines U-266, NCI-H929, RPMI-8226; DVD-IgG1 at 20 nM, Alexa Fluor 647 anti-human Fc
T1 construct: whole, on cells; Cell surface antigen targeted on human MM cell lines in flow cytometry
T1 sequence (looked up): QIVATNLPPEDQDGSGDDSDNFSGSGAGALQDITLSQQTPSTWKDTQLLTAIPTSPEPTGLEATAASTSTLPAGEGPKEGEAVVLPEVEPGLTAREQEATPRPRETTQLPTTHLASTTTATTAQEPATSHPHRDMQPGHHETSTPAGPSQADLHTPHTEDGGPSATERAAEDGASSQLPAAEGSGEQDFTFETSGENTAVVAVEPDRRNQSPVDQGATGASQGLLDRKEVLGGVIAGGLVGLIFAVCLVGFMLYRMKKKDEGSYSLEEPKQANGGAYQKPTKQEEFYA
Protocol: (§1) Flow cytometry: In a V-bottom 96-well plate (Corning), 100,000 cells per well were dispensed. The cells were washed with 200 μL flow cytometry buffer (PBS, 2% (v/v) FBS, 0.01% (w/v) NaN₃, pH 7.4), incubated with DVD-IgG1 or IgG1 (50 μL of a 20 nM solution in PBS) for 30 min on ice, washed with 200 μL ice-cold flow cytometry buffer, and stained with Alexa Fluor 647 conjugated polyclonal (Fab′)₂ donkey anti-human Fc (Jackson ImmunoResearch Laboratories) for 20 min on ice. After washing twice with 200 μL ice-cold flow cytometry buffer, the cells were analyzed using a Canto II Flow Cytometer (Becton-Dickinson). Data were analyzed using FlowJo software (Tree Star).

[2] = target: T2, human B-cell maturation antigen (BCMA) (human, UniProt Q02223 1-184); experiment: flow cytometry on cells; cell line and concentration not printed on the sheet (methods paragraph 609)
T2 construct: whole, on cells; Cell surface antigen targeted on human MM cell lines in flow cytometry
T2 sequence (looked up): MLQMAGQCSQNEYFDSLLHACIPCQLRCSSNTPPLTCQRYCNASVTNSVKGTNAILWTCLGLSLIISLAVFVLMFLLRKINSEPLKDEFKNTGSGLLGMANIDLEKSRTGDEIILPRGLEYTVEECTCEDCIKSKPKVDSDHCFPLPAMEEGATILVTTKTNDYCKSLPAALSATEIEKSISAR
Protocol: Flow cytometry: During the process of flow cytometry, 100,000 cells were dispensed in each well of a V-bottom 96-well plate (Corning) and washed with 150 μL of flow cytometry buffer (PBS, 2% (v/v) FBS, 0.01% (w/v) NaN₃, pH 7.4). Subsequently, the cells were incubated with the antibodies (200 nM in 50 μL PBS) for 1 h on ice, followed by 3 rounds of washing (200 μL flow buffer). Finally, the cells were stained with R-Phycoerythrin AffiniPure F(ab′)₂ Fragment Goat Anti-Human IgG, F(ab′)₂ fragment specific (for Fabs and IgG1 or IgG1 ARCs), or R-Phycoerythrin AffiniPure F(ab′)₂ Fragment Donkey Anti-Human IgM, Fc5μ fragment specific (IgM or IgM ARCs) purchased from Jackson ImmunoResearch Laboratories for 30 min on ice. After 3 rounds of washing, the cells were passed through a BD FACSCanto™ II and the data were extracted and analyzed via FlowJo software.

human SLAMF7 [3] = target: T3, human SLAMF7 (human, UniProt Q9NQ25 23-335); experiment: flow cytometry on MM cell lines U-266, NCI-H929, RPMI-8226; DVD-IgG1 at 20 nM, Alexa Fluor 647 anti-human Fc; curve assigned by grey tone only
T3 construct: whole, on cells; Cell surface antigen targeted on human MM cell lines in flow cytometry; also called CS-1
Protocol: as §1

human SLAMF7 [4] = target: T3, human SLAMF7; experiment: flow cytometry on MM cell lines U-266, NCI-H929, RPMI-8226; negative control
Protocol: as §1

human CD138 [5] = target: T1, human CD138; experiment: as above
Protocol: as §1

B1: Anti-CD138 DVD-IgG1 (3) (antibody)
light: DIQMTQSTSSLSASLGDRVTISCSASQGINNYLNWYQQKPDGTVELLIYYTSTLQSGVPSRFSGSGSGTDYSLTISNLEPEDIGTYYCQQYSKLPRTFGGGTKLEIKASTKGPELQMTQSPSSLSASVGDRVTITCRSSQSLLHTYGSPYLNWYLQKPGQSPKLLIYKVSNRFSGVPSRFSGSGSGTDFTLTISSLQPEDFAVYFCSQGTHLPYTFGGGTKVEIKRTVAAPSVFIFPPSDEQLKSGTASVVCLLNNFYPREAKVQWKVDNALQSGNSQESVTEQDSKDSTYSLSSTLTLSKADYEKHKVYACEVTHQGLSSPVTKSFNRGEC
heavy: not shown
notes: Dual variable domain IgG1: outer anti-CD138 Fv, ASTKGP spacer, inner h38C2 Fv, human IgG1 and kappa constant domains
- binding result (human CD138 [1]): binds

B2: Anti-BCMA DVD-IgG1 (2) (antibody)
light: DIQMTQSPSSLSASVGDRVTITCSASQDISNYLNWYQQKPGKAPKLLIYYTSNLHSGVPSRFSGSGSGTDFTLTISSLQPEDFATYYCQQYRKLPWTFGQGTKLEIKASTKGPELQMTQSPSSLSASVGDRVTITCRSSQSLLHTYGSPYLNWYLQKPGQSPKLLIYKVSNRFSGVPSRFSGSGSGTDFTLTISSLQPEDFAVYFCSQGTHLPYTFGGGTKVEIKRTVAAPSVFIFPPSDEQLKSGTASVVCLLNNFYPREAKVQWKVDNALQSGNSQESVTEQDSKDSTYSLSSTLTLSKADYEKHKVYACEVTHQGLSSPVTKSFNRGEC
heavy: not shown
notes: Dual variable domain IgG1: outer anti-BCMA Fv, ASTKGP spacer, inner h38C2 Fv, human IgG1 and kappa constant domains
- binding result [2]: binds

B3: Anti-SLAMF7 DVD-IgG1 (1) (antibody)
light: DIQMTQSPSSLSASVGDRVTITCKASQDVGIAVAWYQQKPGKVPKLLIYWASTRHTGVPDRFSGSGSGTDFTLTISSLQPEDVATYYCQQYSSYPYTFGQGTKVEIKASTKGPELQMTQSPSSLSASVGDRVTITCRSSQSLLHTYGSPYLNWYLQKPGQSPKLLIYKVSNRFSGVPSRFSGSGSGTDFTLTISSLQPEDFAVYFCSQGTHLPYTFGGGTKVEIKRTVAAPSVFIFPPSDEQLKSGTASVVCLLNNFYPREAKVQWKVDNALQSGNSQESVTEQDSKDSTYSLSSTLTLSKADYEKHKVYACEVTHQGLSSPVTKSFNRGEC
heavy: not shown
notes: Dual variable domain IgG1: outer anti-SLAMF7 Fv, ASTKGP spacer, inner h38C2 Fv, human IgG1 and kappa constant domains
- binding result (human SLAMF7 [3]): binds

B4: h38C2 IgG1 (antibody, V domains shown)
VH: EVQLVESGGGLVQPGGSLRLSCAASGFTFSNYWMSWVRQSPEKGLEWVSEIRLRSDNYATHYAESVKGRFTISRDNSKNTLYLQMNSLRAEDTGIYYCKTYFYSFSYWGQGTLVTVSS
VL: ELQMTQSPSSLSASVGDRVTITCRSSQSLLHTYGSPYLNWYLQKPGQSPKLLIYKVSNRFSGVPSRFSGSGSGTDFTLTISSLQPEDFAVYFCSQGTHLPYTFGGGTKVEIKR
notes: also called humanized 38C2 IgG1
- binding result (human SLAMF7 [4]): no binding (tested: 20 nM (single concentration))
- binding result (human CD138 [5]): no binding (tested: 20 nM (single concentration))

Source: US20230049529A1 (ALNYLAM PHARMACEUTICALS, published 2023)
